Assay [1] addresses T1, CRF2-4 receptor, full-length, on transfected BaF3 or BHK cells (CRF2-4 alone) (UniProt Q08334 20-325, limits assumed).
T1 construct: whole, on cells; The full-length receptor on cells is tied only to Genbank Z17227; also called CFR2-4; BaF3/CRF2-4
T1 sequence (looked up): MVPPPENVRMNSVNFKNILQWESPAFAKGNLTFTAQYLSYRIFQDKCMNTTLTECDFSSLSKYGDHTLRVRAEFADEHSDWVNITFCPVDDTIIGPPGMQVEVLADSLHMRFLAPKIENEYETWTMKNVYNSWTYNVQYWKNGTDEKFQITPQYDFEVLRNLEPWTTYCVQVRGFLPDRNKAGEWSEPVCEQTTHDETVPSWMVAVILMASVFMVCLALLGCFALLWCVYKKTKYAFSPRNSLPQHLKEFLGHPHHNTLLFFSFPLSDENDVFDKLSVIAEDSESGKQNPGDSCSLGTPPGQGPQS
Description: flow cytometry, biotinylated IL-TIF-CEE plus PE-streptavidin on BaF3 transfectants (same results stated for BHK transfectants). The source says: (§1) To test the binding properties of the IL-TIF ligand to several potential receptor components, BaF3 and BHK cells were transfected with expression plasmids including zcytor11 alone, CRF2-4 alone (Genbank Accession No. Z17227), zcytor11 (SEQ ID NO:1) and CRF2-4, or zcytoR11 and pDIRS1 (WIPO Publication WO99/46379, Schering Corporation, 1999), as described above. Untransfected BaF3 and BHK cells were included as controls. Cells were resuspended in FACS wash buffer (WB: PBS/1%BSA, supplemented with 3% human Ultraserum (Gemini BioProducts, Calabasas, Calif.)) counted and 1×10⁶ of each type were aliquoted into 5 ml polystyrene tubes. Cells were washed and pelleted, then incubated for 20 min on ice with 100 μl of WB only, or WB plus 10 μg/ml or 1 μg/ml biotinylated zcytolO protein. Cells were washed with 1.5 ml WB and pelleted, then incubated in 100 μl of 2.5 μg/ml phycoerthyrin-conjugated streptavidin (PE-SA, PharMingen, San Diego, Calif.) for another 20 min on ice. Cells were washed as before, resuspended in 0.4 ml of WB and analyzed on a FACScan using CellQuest software (Becton Dickinson, Mountain View, Calif.).
(In general: Flow cytometry measures light scatter and fluorescence of single cells or particles in a stream.)

In assay [2] the target is T2, zcytor11 receptor, full-length, on transfected BaF3 or BHK cells (zcytor11 alone) (human, UniProt Q8N6P7 18-574).
T2 construct: also called BaF3/zcytor11
T2 sequence: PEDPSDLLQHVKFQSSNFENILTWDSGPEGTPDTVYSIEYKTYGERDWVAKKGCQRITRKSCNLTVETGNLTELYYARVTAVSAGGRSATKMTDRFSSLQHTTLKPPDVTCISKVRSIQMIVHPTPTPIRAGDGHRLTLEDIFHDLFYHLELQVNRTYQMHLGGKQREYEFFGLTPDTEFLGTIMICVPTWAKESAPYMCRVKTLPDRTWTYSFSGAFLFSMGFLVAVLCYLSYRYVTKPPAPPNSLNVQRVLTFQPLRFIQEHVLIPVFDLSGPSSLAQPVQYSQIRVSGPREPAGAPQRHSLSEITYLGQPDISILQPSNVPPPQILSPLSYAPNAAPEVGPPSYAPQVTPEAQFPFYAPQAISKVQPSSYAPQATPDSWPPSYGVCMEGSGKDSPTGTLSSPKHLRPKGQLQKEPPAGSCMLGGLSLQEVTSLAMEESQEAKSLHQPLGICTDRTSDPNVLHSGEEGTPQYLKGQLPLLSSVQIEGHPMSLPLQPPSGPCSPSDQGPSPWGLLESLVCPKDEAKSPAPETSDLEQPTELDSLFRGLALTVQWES
The assay is described as follows: flow cytometry, biotinylated IL-TIF-CEE at 10 or 1 µg/ml plus PE-streptavidin on BaF3 transfectants (same results stated for BHK transfectants).
Source text: as §1

The target of assay [3] is T3, zcytor11 and CRF2-4 receptors co-expressed on transfected BaF3 or BHK cells (human, UniProt Q08334 20-325, limits assumed).
T3 construct: whole, on cells; The two receptor subunits are co-transfected in one cell line; also called zcytor11/CRF2-4; BaF3/zcytor11/CRF2-4
T3 sequence 1: T2 sequence
T3 sequence 2: T1 sequence (looked up)
Described as above.
Source text: as §1

B1: biotinylated human IL-TIF-CEE (ligand)
chain: APISSHCRLDKSNFQQPYITNRTFMLAKEASLADNNTDVRLIGEKLFHGVSMSERCYLMKQVLNFTLEEVLFPQSDRFQPYMQEVVPFLARLSNRLSTCHIEGDDLHIQRNVQKLKDTVKKLGESGEIKAIGELDLLFMSLRNACIEYMPME
modifications: biotinylated with EZ-link Sulfo-NHS-LC-biotin (sites not given)
notes: also called biotin-IL-TIF; IL-TIF ligand
On to B1, for which the binding result in assay [1] is “no binding (tested: 10 µg/ml or 1 µg/ml biotinylated protein)”; in assay [2], “binds”; in assay [3] it was “binds”.
